Measured values from the nanobody polyreactivity screen of Harvey et al. (2022).

Assay: yeast display, Sf9 membrane polyspecificity reagent, FACS + sequencing; frameworks hold sequencing errors
Method in brief: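 A nanobody's polyreactivity label depends on the gate it was sorted from. Yeast display cells were stained with 10% biotinylated, detergent-solubilized Sf9 membrane reagent for 1 hour at 4 °C, enriched on streptavidin microbeads and sorted by FACS. The low and high (top ~1%) gates were set on anti-HA fluorescence for expression and streptavidin fluorescence for reagent binding.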

Sequence	polyreactivity (PSR sort gate)
QVQLVESGGGLVQAGGILRLSCAASGSTFRIYAKGWYRPAPGKERELVAGIRSSGGSTYYADSVKGRFTISRDKAKNTDYLQLNSLKPEDTAVYYCAKRHPYSWGSYQRYNYWGQGTQVTVSS	low polyreactivity
QVQLVESGGGLVQAGGILRLSCAASGSTFSYYAMGWYRQAPGKERELVARISKDTGSTYYADSVKGRFTISRDNAKNTVYLQMNSLKPEDTAVYYCAAELDYFPGYDYWGQGTQVTVSS	low polyreactivity
QVQLVESGGGLVQAGGILRLSCAASGSTFYRNAMGWYRQEPGKEREFVAAISFRGGGTYADSVKGRFTISRDNAKNTVYLQMNSLKPEDSAVYYCAAESKPRWYVRYDYWGQGTQVTVSS	low polyreactivity
QVQLVESGGGLVQAGGILRLSCAASVRIFGVYAMGWYRQAPGKERELVAAITSGGSTTYADSVKGRFTISRDNAKNNVYLQMNSLKQEDTAVYYCNKEPQPFFLYGYWGQGTQVTVSS	low polyreactivity
QVQLVESGGGLVQAGGILRLSCAAYGRTFYLYTMGWYRQEPGKERELVAAISRGGRTYADSVKGRFTISRDNAKNTVYLQMNSLKPEDTAVYYCADRGYFYYSRYDSWGQGTQVTVSS	low polyreactivity
QVQLVESGGGLVQAGGILRLSCDASGRIFYSYAMGWYRQAHGKERVLVAAIDESVGSKYYADSVKGRFTISRDNAKNTVYLHMNSLKREDTAVYYCAADYLLVLFYYWGQGTQVTVSS	low polyreactivity
QVQLVESGGGLVQAGGILRLSCPASGIIIPLYAMGWYIQAPGKERELVATINIGGSTNYADSVKGRFTISRDNAKNTVYLQMNSLKPEDTAVYYCAADVDSLQRYESWGQGTQVTVSS	low polyreactivity
QVQLVESGGGLVQAGGILRLSFAASGSTFYPNTMGWYRQAPGKERELVAAITNGGSTNYADSVKGRFTIARDNAKNTVYLQMNSLKPEDTAVYDCAADGYDQWGRDVVYLIWTSYDYWGQGTQVTVSS	high polyreactivity
QVQLVESGGGLVQAGGILRLSSAASGFTFSRNAMGWYRQAPGKERELVASISGRGGRTYYADSVKGRFTISRDNAKNTVSLQMNSLKPEDTAVYDCAARWRQRKSVRYGQQGYDYWGQGTQVSVSS	high polyreactivity
QVQLVESGGGLVQAGGNLRLSCAASGFIFTRYAMGWYRQAPGKERELVAAISTSGDRTYYADSVKGRFTISRDNAKNTVYLQMNSLKPEDTAVYYCATSKSYSSKLYDYWGQGTQVTVSS	high polyreactivity
QVQLVESGGGLVQAGGNLRLSCAASGGIFYLYAMGWYRPAPGKERELVASINWRSATTYYADSVKGRFTISRDNAKNTVYLQMNSLKPEDTAVYYCNVQWYGGYDYWGQGSQVTVSS	low polyreactivity
QVQLVESGGGLVQAGGNLRLSCAASGNIFYVYAMGWYRQAPGKERELVAAITRSGGRTYYADSVKGRFTISRDNAKNTVYLQMTSLKPEDTAVYYCAADRGVTRQKMDYWGQGTQVTVSS	low polyreactivity
QVQLVESGGGLVQAGGNLRLSCAASGRIFSSYAMGWYRQAPGKERELVAAITGTGGTTYYADSVKGRFTISRDNAKYTVYLQMNSLKPEDTAVYYCNAERIYRLSRDSAVQYDYWGQGTQVTVSS	low polyreactivity
QVQLVESGGGLVQAGGNLRLSCAASGSIFPRNAMGWYRQAPGKERELVAAISWRGGSTYYADSVKGRFTISRDNAKNTVYLQMNSLKPEDTAVYYCAATTYRSRYDYWGQGTQVTVSS	high polyreactivity
QVQLVESGGGLVQAGGRLGLSCAACGFICDGYAMGWYRQAPGKDRELVAAITGSGGSPYYADSVKGRFTISRDNAKNTVYLQMNSLKPEDTAVYYCNTDYYSVRSGSYWHFPGGDYWGQGTQVTVSS	low polyreactivity
QVQLVESGGGLVQAGGRLLLSCAASGSTFDAYAMGWYRQAPGKERELVAAITNGGSTYYADSVKGRFTISRDNAKNTVYFQMNCLKPEDTAVYYCNAQHRTVWGIFGRFNYWGLGTQVTVSS	low polyreactivity
QVQLVESGGGLVQAGGRLPISCAASGLTFTSNAMGGYIQAPGKERELVASITWYGGSTSYADSVKGRFTISRDYAKNTVDFQMNSLKPEDTAVSYCAADAWRSYGYRAYYYWGQGTQVTVSS	high polyreactivity
QVQLVESGGGLVQAGGRLRFSCAASGSTFVNNAMGWYRQAPGKERELVAAISRRGGRTYYADSEKGRFTISRDNAKNTVYLQMKSLKPEDTAVYYCAADESRYDYWGQGTQVTVSS	high polyreactivity
QVQLVESGGGLVQAGGRLRISCAASGRTFYRYAMGWYRQAPGKERELVAAITYSGGSTNYADSVKGRFTISRDYAKNTVYLQMNSLKPEDTAVYYCATRYNVVRWPYYYWGQGTQVNVSS	high polyreactivity
QVQLVESGGGLVQAGGRLRISFAATGITSGRYAMGGYRQAPGNERELVAAISNSGGSTYYADSVKGRFTISRDNAKNTVYLQMNSLKPEDTAVYYCAARSASSRMDYWGQGTQVTVSS	high polyreactivity
QVQLVESGGGLVQAGGRLRLICAASGFIFGTYAMGWYRQAPGKEREFDAAINWGGGRTYYADSVKGRFTISRDNAKNTVYLQMISLKAEDTAVYYCNIRLIYYRGSYYSLRFDYWGQGTQVTLSS	high polyreactivity
